This is an account of results in US20260234255A1 (Genmab, published 2026).

Usually EC50 stands for the midpoint of the concentration-response curve. As a reminder, the EC50 (read off the curve) is the concentration that produces a half-maximal response.

For assay [1], the target named is T1, human CD30 (human, UniProt P28908 19-595).
T1 construct: The same molecule is used for CD30 on HL/ALCL/NHL cell lines; also called huCD30; TNFRSF8
T1 sequence: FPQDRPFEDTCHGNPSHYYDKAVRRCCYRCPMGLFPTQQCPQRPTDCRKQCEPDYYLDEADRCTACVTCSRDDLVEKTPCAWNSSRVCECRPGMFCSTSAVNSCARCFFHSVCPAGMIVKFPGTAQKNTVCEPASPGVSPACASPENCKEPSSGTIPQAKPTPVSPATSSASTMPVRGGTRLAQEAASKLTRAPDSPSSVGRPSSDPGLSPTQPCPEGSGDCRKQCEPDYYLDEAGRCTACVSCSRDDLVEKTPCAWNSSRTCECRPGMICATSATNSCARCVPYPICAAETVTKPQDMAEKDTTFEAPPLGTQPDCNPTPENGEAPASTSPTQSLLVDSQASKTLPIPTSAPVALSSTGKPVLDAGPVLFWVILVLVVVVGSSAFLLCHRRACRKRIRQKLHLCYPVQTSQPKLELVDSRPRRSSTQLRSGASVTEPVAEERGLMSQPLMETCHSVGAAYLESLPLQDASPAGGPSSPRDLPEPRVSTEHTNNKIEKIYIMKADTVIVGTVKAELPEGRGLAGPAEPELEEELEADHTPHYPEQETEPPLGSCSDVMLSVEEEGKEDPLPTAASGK
Briefly: flow cytometry, L-428 cells, experiment N = 2. A general note: A flow cytometer gives signals particle by particle.

Assay [2] deals with T1, human CD30. The assay is described as follows: flow cytometry, HDLM-2 cells, experiment N = 2.
Assay [3] addresses T2, cynomolgus monkey CD3 (cynomolgus monkey, UniProt Q95LI5 22-198).
T2 construct: CD3 endogenously expressed on T cells within cynomolgus monkey PBMCs
Briefly: flow cytometry, cynomolgus monkey T cells (PBMCs). Here is the method: Cynomolgus monkey PBMCs (Tebu-Bio, The Netherlands; cat. no. PBMCMFA-10) or purified human T cells were plated in polystyrene 96-well round-bottom plates. T cells were derived from human donor buffy coats (Sanquin, Amsterdam, The Netherlands) and isolated using the RosetteSep human T cell enrichment cocktail (Stemcell Technologies, France, cat. no. 15061) according to manufacturer's instructions. […] After washing twice in staining buffer, cells were incubated in 50 μL secondary R-PE-conjugated goat-anti-human IgG antibody at 4° C. for 30 min (1:400 dilution). After washing twice in staining buffer, T cells were stained for T-cell markers CD3 (1:100; Miltenyi biotec, clone 10D12, conjugated to APC), CD4 (1:50; eBioscience, clone OKT4, conjugated to APC-Cy7), CD8 (1:100; Biolegend, clone RPA-T8, conjugated to AF700) and T-cell activation markers CD69 (1:50; BD Biosciences, clone AB2439, conjugated to FITC), CD25 (1:50; eBioscience, clone BC96, conjugated to PE-Cy7) and CD279/PD1 (1:50; BD Biosciences, clone AEH12.2H7, conjugated to BV605). Single stained samples with Ultracomp beads (5 μL; Invitrogen, cat. no. 01-2222-42) were used for compensation adjustments of the flow cytometer. After 30 min of incubation at 4° C., cells were washed twice with staining buffer, resuspended in 100 μL staining buffer and analyzed using a FACS Fortessa (BD Biosciences). Data were processed using FlowJo (BD Biosciences).

Assay [4] deals with T1, human CD30. Briefly: flow cytometry, Expi293F cells transfected with human CD30. As to the method:
Cells (3×10⁴ cells/well) were incubated in polystyrene 96-well round-bottom plates (Greiner bio-one, cat. no. 650180) with serial dilutions of antibodies (ranging from 0.005 to 10 μg/mL in 3-fold dilution steps) in 100 μL staining buffer at 4° C. for 30 min. Experiments were performed in technical duplicate. After washing twice in staining buffer, cells were incubated in 50 μL secondary antibody at 4° C. for 30 min. As a secondary antibody, R-PE-conjugated goat-anti-human IgG (Jackson ImmunoResearch, UK; cat. no. 109⁻¹¹⁶-098) diluted 1:400 in staining buffer was used. Cells were washed twice in staining buffer, resuspended in 30 μL staining buffer containing 0.4% EDTA and analyzed on an iQue Screener (Intellicyt Corporation, USA). Binding curves were analyzed using non-linear regression (sigmoidal dose-response with variable slope) using GraphPad Prism V9.0.0 software (GraphPad Software, San Diego, CA, USA).

In assay [5] the target is T1, human CD30. Briefly: flow cytometry, DEL cells (ALCL), range of 3 tests. Here is the method:
(§1) Cells (3×10⁴ cells/well) were incubated in polystyrene 96-well round-bottom plates (Greiner bio-one, cat. no. 650180) with serial dilutions of antibodies (range 0.0046 to 10 μg/mL in 3-fold dilution steps) in 50 μL staining buffer at 4° C. for 30 min. After washing twice in staining buffer, cells were incubated with 50 μL secondary antibody at 4° C. for 30 min. […] Next, cells were washed twice in staining buffer, resuspended in 100 μL staining buffer supplemented with TO-PRO-3 iodide (Thermo Fisher Scientific; cat. no. T3605; 1:8000 dilution) and analyzed on a FACSCelesta flow cytometer (BD Biosciences, USA). Live cells were gated based on FSC/SSC and absence of TOPRO-3 staining. Binding curves were analyzed by non-linear regression of log-transformed data (sigmoidal dose-response with variable slope, four parameters) using GraphPad Prism V7.02 software (GraphPad Software, San Diego, CA, USA).

The target in assay [6] is T1, human CD30. Briefly: flow cytometry, KM-H2 cells (HL), range of 3 tests. As to the method:
as §1

The target of assay [7] is T1, human CD30. Briefly: flow cytometry, HH cells (CTCL), average of 3 tests. Here is the method: as §1
Assay [8] has as its target T1, human CD30. The assay is described as follows: flow cytometry, DEL cells (ALCL), average of 3 tests. Here is the method:
as §1

Assay [9] concerns the target T1, human CD30. Briefly: flow cytometry, L-428 cells (HL), average of 2 tests. As to the method: as §1
Assay [10] has as its target T1, human CD30. The assay is described as follows: flow cytometry, JVM-2 cells (MCL), average of 3 tests. Here is the method:
as §1

In assay [11] the target is T1, human CD30. Briefly: flow cytometry, DL-40 cells (ALCL), average of 3 tests. As to the method:
as §1

Assay [12] addresses T1, human CD30. The assay is described as follows: flow cytometry, KARPAS-299 cells (ALCL), range of 2 tests. Here is the method: as §1

T2 sequence (Q95LI5 22-198): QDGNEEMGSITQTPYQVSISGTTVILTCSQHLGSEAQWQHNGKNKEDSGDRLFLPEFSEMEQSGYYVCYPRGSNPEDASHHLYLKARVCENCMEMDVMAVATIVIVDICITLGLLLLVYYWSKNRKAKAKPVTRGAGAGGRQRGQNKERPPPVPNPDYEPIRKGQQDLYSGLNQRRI

B1: bsG1-huCD3-FEALxCD30-MDX060-FEAR (bispecific antibody, human IgG1, kappa, lambda)
heavy 1: not shown
light 1: not shown
heavy 2: QVQLQQWGAGLLKPSETLSLTCAVYGGSFSAYYWSWIRQPPGKGLEWIGDINHGGGTNYNPSLKSRVTISVDTSKNQFSLKLNSVTAADTAVYYCASLTAYWGQGSLVTVSSASTKGPSVFPLAPSSKSTSGGTAALGCLVKDYFPEPVTVSWNSGALTSGVHTFPAVLQSSGLYSLSSVVTVPSSSLGTQTYICNVNHKPSNTKVDKRVEPKSCDKTHTCPPCPAPEFEGGPSVFLFPPKPKDTLMISRTPEVTCVVVAVSHEDPEVKFNWYVDGVEVHNAKTKPREEQYNSTYRVVSVLTVLHQDWLNGKEYKCKVSNKALPAPIEKTISKAKGQPREPQVYTLPPSREEMTKNQVSLTCLVKGFYPSDIAVEWESNGQPENNYKTTPPVLDSDGSFFLYSRLTVDKSRWQQGNVFSCSVMHEALHNHYTQKSLSLSPG
light 2: DIQMTQSPTSLSASVGDRVTITCRASQGISSWLTWYQQKPEKAPKSLIYAASSLQSGVPSRFSGSGSGTDFTLTISSLQPEDFATYYCQQYDSYPITFGQGTRLEIKRTVAAPSVFIFPPSDEQLKSGTASVVCLLNNFYPREAKVQWKVDNALQSGNSQESVTEQDSKDSTYSLSSTLTLSKADYEKHKVYACEVTHQGLSSPVTKSFNRGEC
notes: also called bsG1-huCD3xCD30-MDX060
For the molecule B1, the figures for the EC50 in assay [1] and in [2] were 0.0705 µg/mL and 0.12 µg/mL, respectively. The concentration giving a half-maximal response (EC50 (read off the curve)) in [3] is ~0.4 µg/mL; in [4] it was ~0.09 µg/mL.

B2: bsG1-huCD3-FEALxCD30-MDX060-FERR (bispecific antibody, human IgG1, kappa, lambda)
heavy 1: not shown
light 1: not shown
heavy 2: QVQLQQWGAGLLKPSETLSLTCAVYGGSFSAYYWSWIRQPPGKGLEWIGDINHGGGTNYNPSLKSRVTISVDTSKNQFSLKLNSVTAADTAVYYCASLTAYWGQGSLVTVSSASTKGPSVFPLAPSSKSTSGGTAALGCLVKDYFPEPVTVSWNSGALTSGVHTFPAVLQSSGLYSLSSVVTVPSSSLGTQTYICNVNHKPSNTKVDKRVEPKSCDKTHTCPPCPAPEFERGPSVFLFPPKPKDTLMISRTPEVTCVVVDVSHEDPEVKFNWYVDGVEVHNAKTKPREEQYNSTYRVVSVLTVLHQDWLNGKEYKCKVSNKALPAPIEKTISKAKGQPREPQVYTLPPSREEMTKNQVSLTCLVKGFYPSDIAVEWESNGQPENNYKTTPPVLDSDGSFFLYSRLTVDKSRWQQGNVFSCSVMHEALHNHYTQKSLSLSPG
light 2: DIQMTQSPTSLSASVGDRVTITCRASQGISSWLTWYQQKPEKAPKSLIYAASSLQSGVPSRFSGSGSGTDFTLTISSLQPEDFATYYCQQYDSYPITFGQGTRLEIKRTVAAPSVFIFPPSDEQLKSGTASVVCLLNNFYPREAKVQWKVDNALQSGNSQESVTEQDSKDSTYSLSSTLTLSKADYEKHKVYACEVTHQGLSSPVTKSFNRGEC
notes: Bispecific IgG1 made by controlled Fab-arm exchange; also called bsIgG1-huCD3-FEALxCD30-MDX060-FERR; bsG1-huCD3×CD30-MDX060
For B2, the EC50 is 0.143 to 0.267 µg/mL in assay [5]; 0.141 to 0.182 µg/mL in [6]; 0.195 µg/mL in assay [7]; 0.201 µg/mL in assay [8]; 0.174 µg/mL in assay [9]; 0.126 µg/mL in [10]. Besides, the concentration giving a half-maximal response (EC50) in assay [11] was 0.236 µg/mL; in assay [12], 0.134 to 0.269 µg/mL.
